Experimental findings from the DeepSol protein solubility set are described below.

This data set in a line: soluble on expression in E. coli; label from the status in PepcDB or PDB records.
In the case of “MSLQENISVTDSYSTGNAAQAMLEKLLQIYDVKMLVAQLNGVGENHWSAAILKRALANDSAWHRLSEKEFAHLQTLLPKPPEHHPHYAFRFIDLFAGIGGIRRGFESIGGQCVFTSEWNKHAVRTYKANHYCDPATHHFNEDIRDITLSHQEGVSDEAAAEHIRQHIPEHDVLLAGFPCQPFSLAGVSKKNSLGRAHGFACDTQGTLFFDVVRIIDARRPAMFVLENVKNLKSHDKGKTFRIIMQTLDELGYDVADAEDNGPDDPKIIDGKHFLPQHRERIVLVGFRRDLNLKADFTLRDISECFPAQRVTLAQLLDPMVEAKYILTPVLWKYLYRYAKKHQARGNGFGYGMVYPNNPQSVTRTLSARYYKDGAEILIDRGWDMATGEKDFDDPLNQQHRPRRLTPRECARLMGFEAPGEAKFRIPVSDTQAYRQFGNSVVVPVFAAVAKLLEPKIKQAVALRQQEAQHGRRSREGHHHHHH”, the “soluble on expression in E. coli” value is given as “soluble”.

As for “MARKTKQQALETRQHILDVALRLFSQQGVSATSLAEIANAAGVTRGAIYWHFKNKSDLFSEIWELSESNIGELEIEYQAKFPDDPLSVLREILVHILEATVTEERRRLLMEIIFHKCEFVGEMVVVQQAQRSLCLESYDRIEQTLKHCINAKMLPENLLTRRAAILMRSFISGLMENWLFAPQSFDLKKEARAYVTILLEMYQLCPTLRASTVNGSP”, the “soluble on expression in E. coli” value is “not soluble”.

Turning to “MGHHHHHHGGHMSLSDDNSHSSDTISNKKGFFSLLLSQLFHGEPKNRDELLALIRDSGQNDLIDEDTRDMLEGVMDIADQRVRDIMIPRSQMITLKRNQTLDECLDVIIESAHSRFPVISEDKDHIEGILMAKDLLPFMRSDAEAFSMDKVLRQAVVVPESKRVDRMLKEFRSQRYHMAIVIDEFGGVSGLVTIEDILELIVGEIEDEYDEEDDIDFRQLSRHTWTVRALASIEDFNEAFGTHFSDEEVDTIGGLVMQAFGHLPARGETIDIDGYQFKVAMADSRRIIQVHVKIPDDSPQPKLDEEGGS”, the “soluble on expression in E. coli” value is listed as “soluble”.

As to “MAHHHHHHMVSASPPQRDRGSPPTRPLSEPQDVDAPAAGTVQALRQAVEAQEACVRLLRARQAAREALLRHTRRLLTADDSIEWPGSVEQLVRQVEASLHKLQQAHSEAAAPAATTADNVAPTSAPSRSPRNAAGDADPSADPLARIFHSGVEAQLAAVAEPPHTLPASTLASRSSTAKRRKEAGESGLTNAVSTTSPPPGGPFPPRSAAMTALLARSASRQEAGHAAMLAALSALELSLMSNSGATEVGRDVHNAEPAWLRQVDSDSANDDDAAPEEQQQEKEGNRGDIASSDYSDDFECGSSTSSGADD”, the “soluble on expression in E. coli” value is recorded as “not soluble”.

Take “MGSDKIHHHHHHMCNYNQLFENIAELVMHHSPSGAEAEINQLLLQKFAALGVEVWSDRADNIIAKIPGKNSERAVAITAHKDEIGAIVKNIGDAGKVEVRKLGGAYPWVYGEGVVDLLGDNETISGILSFGSRHVSHESPQKVQQEDTAVKWENAWIETKRTTEELEIAGIRPGTRMVIGKHRKHPVKLQDHIASYTLDNKASVAILLALAQQLKQPAMDVYLVASAKEEVGAIGALFFTQNQQLDALIALEICPLSEEYPVKDSENPVLLIQDAYGIYDEGLNGELRQCAKQLNMPVQLTTLSGFGSDASIAMKFGHVGRAACLAFPTQNTHGYEIAHLGAISNCINLLKAFCETEF”: the “soluble on expression in E. coli” value is “not soluble”.

As for “MSLVTKGKSAQYIKDESAFEDFLIGSGLEEASLSLSSGEVRTGQDLRAVIDDALAIRTLINGLHTRYSRTVVEQAAIAGALNPDLFNDLGRANAMAETIARRLDLVAEDTERGWQGRTSTSNEGPGGYIMERTVRGVKESATLDMALLGSADARALDRYAARLGEEGHHHHHH”, the “soluble on expression in E. coli” value was “not soluble”.

Turning to “QYVKPELPDVATLKDVELQTPMQVFSQDGKLIAQFGEKRRIPVTYDEIPQDLIHALIATEDSRFYEHPGIDPIGITRAAVVVALSGSAKQGASTITQQLARNFFLSNEKKLMRKIKEIFIAIHIEQLLSKQEIMELYVNKIFLGYRSYGFGAAAQVYFGKSLNELSLSEIATLAGMPKAPSTMNPIYSLERATKRRNVVLMRMLDEKYITQEQFDEARNEPIIARYHSAEIEVSAPYVAELARAWAVKEYGEEKAYTSGLNIYMTVDSKLQDAANKAAVNNLMAYDERHGYRGAEKVLWKEGEAAWDAEQIEKHLKGQPTYGDLYPAVVTKVEGKTAQVVVKNNDAQTIPWTGINWARKFLTDNRQGSTPKSAQEVLAAGEQIWVRELTTTDEDGNTQSSWKLSQVPSANT”, the “soluble on expression in E. coli” value is “not soluble”.
